Measured values from patent publication US20220112288A1 (published 2022).
Positions count from the first letter of the chain named. Blank lines part the entries; values can stand above or below the binder they belong to.

Columns and labels:
[1] = molecular target: T1, human CD4 on cells (SKW3 cells; human PBMCs) (human, UniProt P01730 26-458); experiment: FACS confirmation, supernatant on human PBMCs, anti-mouse Fc 647, CD4+ gate
T1 construct: whole, on cells; SKW3 CD4 knockout cells served as the negative cell line; also called hCD4

[2] = molecular target: T1, human CD4 on cells (SKW3 cells; human …); experiment: FACS confirmation, supernatant on SKW3 WT cells, anti-mouse Fc 647; background gMFI 3300
[3] = molecular target: T1, human CD4 on cells (SKW3 cells; human …); experiment: FACS confirmation, supernatant on SKW3 WT cells, anti-human kappa FITC; background gMFI 2500
[4] = molecular target: T1, human CD4 on cells (SKW3 cells; human …); experiment: FACS confirmation, supernatant on human PBMCs, anti-mouse Fc 647, CD4+ percent of viable cells
[5] = molecular target: T1, human CD4 on cells (SKW3 cells; human …); experiment: FACS primary screen, non-clonal hybridoma supernatant, SKW3 vs SKW3 CD4 knockout cells, anti-mouse Fc A647
[6] = molecular target: T1, human CD4 on cells (SKW3 cells; human …); experiment: FACS primary screen, non-clonal hybridoma supernatant, SKW3 vs SKW3 CD4 knockout cells, anti-human kappa FITC
[7] = molecular target: T2, huCD4-HIS (human, UniProt P01730 26-390, limits assumed); experiment: ELISA binning, competitor Ibalizumab; 100 ng/mL huCD4-HIS, anti-HIS HRP detection; background 45, max binding 3000000
T2 construct: the ELISA binning is not described in the text of this stretch

[8] = molecular target: T1, human CD4 on cells (SKW3 cells; human …); experiment: FACS binning on SKW3 cells pre-incubated with supernatant; competitor OKT4-A488, its signal read; background 2163, max binding 8200
[9] = molecular target: T1, human CD4 on cells (SKW3 cells; human …); experiment: FACS binning on SKW3 cells pre-incubated with supernatant; competitor RPA-T4-PE-Dazzle 594, its signal read; background 783, max binding 15000
[10] = molecular target: T1, human CD4 on cells (SKW3 cells; human …); experiment: FACS binning on SKW3 cells pre-incubated with supernatant; competitor OKT4a read with anti-human A647 secondary; background 5000, max binding 35000

PBMCs, anti-mFc 647 CD4+ gate - RL1 Binding [1]: 99600
SKW3 WT anti-mFc 647, gMFI [2]: 23900 gMFI
SKW3 WT anti-hu Kappa FITC, gMFI [3]: 7240 gMFI
SKW3 WT vs KO anti-mFc-647 [5]: 6.8 fold
SKW3 WT vs KO anti-hKappa-FITC [6]: 3.1 fold
Ibalizumab ELISA binning signal [7]: 1.17e+06
SKW3 FACS Binning OKT4 A488 [8]: 9760
SKW3 FACS Binning RPA-T4-PE-Dazzle 594 [9]: 20800
SKW3 FACS Binning OKT4a anti-hu A647 Secondary [10]: 5500
B1: 75110_13C13A (antibody, IgG1, V domains shown)
VH: QVQLQQWGAGLLKPSETLSLTCAVSGGSFSGYYWSWIRQPPGKGLEWIGEINHSGSTNCNPSLKSRVTISVDTSKNQFSLKLSSVTAADTAMYYCARVLNFFDYWGQGTLVTVSS
VL: DIQMTQTPSSVSASVGDRVTITCRASPGISNWLAWYQQKPGKAPELLIYAASSLQSGVPSRFSGSGSGTDFTLTISSLQPEDFATYFCQQANSFPLTFGGGTKVESK
notes: Tested as non-clonal AlivaMab Mouse Kappa hybridoma supernatant: human variable domains and human kappa, mouse Fc
PBMCs, anti-mFc 647 CD4+ Percent Bound of Viable [4]: 6%

PBMCs, anti-mFc 647 CD4+ gate - RL1 Binding [1]: 286000
SKW3 WT anti-mFc 647, gMFI [2]: 26900 gMFI
SKW3 WT anti-hu Kappa FITC, gMFI [3]: 5580 gMFI
SKW3 WT vs KO anti-mFc-647 [5]: 3.6 fold
SKW3 WT vs KO anti-hKappa-FITC [6]: 1.8 fold
Ibalizumab ELISA binning signal [7]: 748000
SKW3 FACS Binning OKT4 A488 [8]: 9940
SKW3 FACS Binning RPA-T4-PE-Dazzle 594 [9]: 2290
SKW3 FACS Binning OKT4a anti-hu A647 Secondary [10]: 40200
B2: 75110_04F22A (antibody, V domains shown)
VH: EVQLVESGGGLVQPGGSLRLSCAASGFTFSSYDIHWVRQATGKGLEWVSTIGTAGDTYYPGSVKGRFTISRENAKNSLYLQMNSLRAGDTAVYYCARGGYYYYGMDVWGQGTTVTVSS
VL: EIVLTQSPGTLSLSPGERATLSCRASQSVYSSYLAWYQQKPGQAPRLLIYGASSRATGIPDRFSGSGSGTDFTLTISRLEPEDFAVYYCQQFGTSPFTFGPGTKVDIK
notes: as for B1
PBMCs, anti-mFc 647 CD4+ Percent Bound of Viable [4]: 32%

PBMCs, anti-mFc 647 CD4+ gate - RL1 Binding [1]: 210000
SKW3 WT anti-mFc 647, gMFI [2]: 28000 gMFI
SKW3 WT anti-hu Kappa FITC, gMFI [3]: 5640 gMFI
SKW3 WT vs KO anti-mFc-647 [5]: 3.7 fold
SKW3 WT vs KO anti-hKappa-FITC [6]: 1.9 fold
Ibalizumab ELISA binning signal [7]: 1.04e+06
SKW3 FACS Binning OKT4 A488 [8]: 9720
SKW3 FACS Binning RPA-T4-PE-Dazzle 594 [9]: 2240
SKW3 FACS Binning OKT4a anti-hu A647 Secondary [10]: 38100
B3: 75110_01N04A (antibody, IgG1, V domains shown)
VH: B2 VH with S31N, I34M, Y100D, Y101F, M105L
VL: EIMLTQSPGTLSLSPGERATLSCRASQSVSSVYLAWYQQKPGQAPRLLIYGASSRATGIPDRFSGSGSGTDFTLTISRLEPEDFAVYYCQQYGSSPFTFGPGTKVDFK
notes: as for B1
PBMCs, anti-mFc 647 CD4+ Percent Bound of Viable [4]: 33%

PBMCs, anti-mFc 647 CD4+ gate - RL1 Binding [1]: 283000
SKW3 WT anti-mFc 647, gMFI [2]: 24300 gMFI
SKW3 WT anti-hu Kappa FITC, gMFI [3]: 5940 gMFI
SKW3 WT vs KO anti-mFc-647 [5]: 4.6 fold
SKW3 WT vs KO anti-hKappa-FITC [6]: 2.2 fold
Ibalizumab ELISA binning signal [7]: 890000
SKW3 FACS Binning OKT4 A488 [8]: 10800
SKW3 FACS Binning RPA-T4-PE-Dazzle 594 [9]: 1510
SKW3 FACS Binning OKT4a anti-hu A647 Secondary [10]: 30000
B4: 75110_01K10A (antibody, V domains shown)
VH: B2 VH with G10A, S30R, S31N, I34M, Y100D
VL: B2 VL with G9D, V29L, Y30S, S32V, S66T, F92Y, T94S
notes: as for B1
PBMCs, anti-mFc 647 CD4+ Percent Bound of Viable [4]: 30%

PBMCs, anti-mFc 647 CD4+ gate - RL1 Binding [1]: 280000
SKW3 WT anti-mFc 647, gMFI [2]: 31600 gMFI
SKW3 WT anti-hu Kappa FITC, gMFI [3]: 5780 gMFI
SKW3 WT vs KO anti-mFc-647 [5]: 4.3 fold
SKW3 WT vs KO anti-hKappa-FITC [6]: 2.1 fold
Ibalizumab ELISA binning signal [7]: 755000
SKW3 FACS Binning OKT4 A488 [8]: 10000
SKW3 FACS Binning RPA-T4-PE-Dazzle 594 [9]: 1950
SKW3 FACS Binning OKT4a anti-hu A647 Secondary [10]: 37700
B5: 75110_01J17A (antibody, IgG1, V domains shown)
VH: B2 VH with I34M, A40G, G55D, K75E, Y100D
VL: B2 VL with T5A, S31I, S77T, T94S, I107F
notes: as for B1
PBMCs, anti-mFc 647 CD4+ Percent Bound of Viable [4]: 32%

PBMCs, anti-mFc 647 CD4+ gate - RL1 Binding [1]: 292000
SKW3 WT anti-mFc 647, gMFI [2]: 24500 gMFI
SKW3 WT anti-hu Kappa FITC, gMFI [3]: 5600 gMFI
SKW3 WT vs KO anti-mFc-647 [5]: 3.9 fold
SKW3 WT vs KO anti-hKappa-FITC [6]: 1.6 fold
Ibalizumab ELISA binning signal [7]: 1.22e+06
SKW3 FACS Binning OKT4 A488 [8]: 10100
SKW3 FACS Binning RPA-T4-PE-Dazzle 594 [9]: 2190
SKW3 FACS Binning OKT4a anti-hu A647 Secondary [10]: 37400
B6: 75110_04P06A (antibody, IgG1, V domains shown)
VH: B2 VH with S31N, I34M, Y100D
VL: B2 VL with G9D, V29L, Y30S, S32V, S77N, A85V, F92Y, T94S
notes: as for B1
PBMCs, anti-mFc 647 CD4+ Percent Bound of Viable [4]: 31%

PBMCs, anti-mFc 647 CD4+ gate - RL1 Binding [1]: 244000
SKW3 WT anti-mFc 647, gMFI [2]: 19200 gMFI
SKW3 WT anti-hu Kappa FITC, gMFI [3]: 5000 gMFI
SKW3 WT vs KO anti-mFc-647 [5]: 3.4 fold
SKW3 WT vs KO anti-hKappa-FITC [6]: 2 fold
Ibalizumab ELISA binning signal [7]: 495000
SKW3 FACS Binning OKT4 A488 [8]: 10100
SKW3 FACS Binning RPA-T4-PE-Dazzle 594 [9]: 2160
SKW3 FACS Binning OKT4a anti-hu A647 Secondary [10]: 30100
B7: 75110_01G11A (antibody, IgG1, V domains shown)
VH: B2 VH with I34M, K75R, Y79F, Y100D
VL: B2 VL with S14F, S28N, V29T, S54N, F92H
notes: as for B1
PBMCs, anti-mFc 647 CD4+ Percent Bound of Viable [4]: 30%
